We go through one molecule from patent US20220332804A1 (CSL INNOVATION, published 2022).

Holding throughout (assay): SPR, antibody captured, C2 as analyte;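 also: biacore SPR at 37 °C, anti-C2 mAbs captured via goat anti-human IgG on CM5 chips, double-referenced sensorgrams fit to a 1:1 kinetic or steady-state model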
One assay addresses T1, human C2 N403A (human, UniProt P06681 21-752).
T1 sequence: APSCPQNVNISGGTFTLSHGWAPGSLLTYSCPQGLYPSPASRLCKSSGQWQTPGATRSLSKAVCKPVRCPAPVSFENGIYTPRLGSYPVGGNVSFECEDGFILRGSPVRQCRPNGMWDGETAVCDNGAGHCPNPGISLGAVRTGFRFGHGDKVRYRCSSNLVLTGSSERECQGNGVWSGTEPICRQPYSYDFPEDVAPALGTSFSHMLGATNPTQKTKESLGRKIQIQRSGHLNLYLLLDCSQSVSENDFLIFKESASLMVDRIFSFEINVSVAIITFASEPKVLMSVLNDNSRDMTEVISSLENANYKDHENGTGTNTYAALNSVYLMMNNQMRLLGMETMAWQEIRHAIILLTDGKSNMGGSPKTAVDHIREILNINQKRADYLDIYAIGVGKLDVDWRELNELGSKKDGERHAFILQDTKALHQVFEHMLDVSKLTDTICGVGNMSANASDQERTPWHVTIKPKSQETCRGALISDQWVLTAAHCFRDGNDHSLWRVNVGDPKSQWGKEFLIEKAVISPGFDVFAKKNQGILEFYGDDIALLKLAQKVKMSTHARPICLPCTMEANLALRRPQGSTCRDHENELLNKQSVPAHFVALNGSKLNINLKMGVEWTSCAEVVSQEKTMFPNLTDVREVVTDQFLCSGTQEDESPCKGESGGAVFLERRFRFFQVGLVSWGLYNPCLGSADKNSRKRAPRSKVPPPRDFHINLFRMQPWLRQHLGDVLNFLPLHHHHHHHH

For another assay, the target named is T2, human C2 D269A (human, UniProt P06681 21-752).
T2 sequence: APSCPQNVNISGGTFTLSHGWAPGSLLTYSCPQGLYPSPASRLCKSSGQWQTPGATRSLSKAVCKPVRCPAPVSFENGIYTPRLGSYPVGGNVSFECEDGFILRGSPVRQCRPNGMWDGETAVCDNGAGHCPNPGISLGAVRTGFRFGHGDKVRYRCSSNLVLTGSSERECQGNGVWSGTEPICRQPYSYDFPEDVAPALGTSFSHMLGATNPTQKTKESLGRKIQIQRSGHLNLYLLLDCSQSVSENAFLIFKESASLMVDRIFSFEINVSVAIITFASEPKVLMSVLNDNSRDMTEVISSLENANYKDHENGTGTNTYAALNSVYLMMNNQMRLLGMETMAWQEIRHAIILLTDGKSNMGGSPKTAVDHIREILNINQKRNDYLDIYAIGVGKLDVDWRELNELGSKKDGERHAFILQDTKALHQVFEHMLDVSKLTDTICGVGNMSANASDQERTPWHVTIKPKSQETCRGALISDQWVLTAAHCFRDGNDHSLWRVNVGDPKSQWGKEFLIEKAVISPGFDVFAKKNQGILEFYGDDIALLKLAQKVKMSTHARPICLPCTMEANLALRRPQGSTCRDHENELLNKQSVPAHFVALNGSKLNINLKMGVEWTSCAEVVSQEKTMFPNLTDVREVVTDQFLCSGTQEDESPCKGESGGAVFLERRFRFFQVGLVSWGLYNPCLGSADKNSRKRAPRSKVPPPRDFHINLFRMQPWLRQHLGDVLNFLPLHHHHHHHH

The next assay has as its target T3, human C2 Q489A (human, UniProt P06681 21-752).
T3 sequence: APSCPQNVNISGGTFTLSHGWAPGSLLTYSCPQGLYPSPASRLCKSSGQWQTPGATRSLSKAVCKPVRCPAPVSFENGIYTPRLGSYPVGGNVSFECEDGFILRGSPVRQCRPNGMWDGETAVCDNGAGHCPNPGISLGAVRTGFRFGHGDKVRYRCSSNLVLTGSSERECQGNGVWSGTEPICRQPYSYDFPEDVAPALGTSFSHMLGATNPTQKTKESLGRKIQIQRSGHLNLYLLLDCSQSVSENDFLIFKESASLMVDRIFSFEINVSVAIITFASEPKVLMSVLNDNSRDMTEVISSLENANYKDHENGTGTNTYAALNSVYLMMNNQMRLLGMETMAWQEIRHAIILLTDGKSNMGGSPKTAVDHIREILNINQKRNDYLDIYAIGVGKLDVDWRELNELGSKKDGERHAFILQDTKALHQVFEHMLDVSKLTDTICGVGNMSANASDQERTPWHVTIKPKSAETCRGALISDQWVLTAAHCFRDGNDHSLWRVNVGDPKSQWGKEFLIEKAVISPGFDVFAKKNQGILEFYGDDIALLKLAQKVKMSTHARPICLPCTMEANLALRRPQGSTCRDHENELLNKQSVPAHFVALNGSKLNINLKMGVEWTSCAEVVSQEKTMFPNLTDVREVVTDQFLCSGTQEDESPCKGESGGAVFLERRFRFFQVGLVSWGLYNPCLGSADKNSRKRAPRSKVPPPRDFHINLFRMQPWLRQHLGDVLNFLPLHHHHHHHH

The target of a further assay is T4, human C2 K676S (human, UniProt P06681 21-752).
T4 sequence: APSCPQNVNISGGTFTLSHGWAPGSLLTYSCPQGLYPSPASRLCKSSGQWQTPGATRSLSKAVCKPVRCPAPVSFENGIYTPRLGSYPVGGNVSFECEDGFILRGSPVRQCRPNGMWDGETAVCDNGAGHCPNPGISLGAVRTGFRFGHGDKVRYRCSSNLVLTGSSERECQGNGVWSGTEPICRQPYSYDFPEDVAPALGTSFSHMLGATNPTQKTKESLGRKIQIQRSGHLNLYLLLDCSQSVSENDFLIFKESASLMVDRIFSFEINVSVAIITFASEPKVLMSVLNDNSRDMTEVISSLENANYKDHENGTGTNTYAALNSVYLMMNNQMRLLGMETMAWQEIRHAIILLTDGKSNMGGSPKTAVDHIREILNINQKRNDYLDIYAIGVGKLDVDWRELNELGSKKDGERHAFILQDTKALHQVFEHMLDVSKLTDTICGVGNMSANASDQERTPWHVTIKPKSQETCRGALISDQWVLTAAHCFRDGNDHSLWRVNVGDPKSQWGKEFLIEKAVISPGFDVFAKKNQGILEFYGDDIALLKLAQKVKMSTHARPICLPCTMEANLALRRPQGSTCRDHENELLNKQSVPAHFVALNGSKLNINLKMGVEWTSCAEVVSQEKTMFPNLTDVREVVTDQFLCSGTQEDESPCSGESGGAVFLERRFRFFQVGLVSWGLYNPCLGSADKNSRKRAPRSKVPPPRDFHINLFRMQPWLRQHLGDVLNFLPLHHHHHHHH

B1: RF16-226 (antibody, human IgG4 S228P, lambda)
heavy: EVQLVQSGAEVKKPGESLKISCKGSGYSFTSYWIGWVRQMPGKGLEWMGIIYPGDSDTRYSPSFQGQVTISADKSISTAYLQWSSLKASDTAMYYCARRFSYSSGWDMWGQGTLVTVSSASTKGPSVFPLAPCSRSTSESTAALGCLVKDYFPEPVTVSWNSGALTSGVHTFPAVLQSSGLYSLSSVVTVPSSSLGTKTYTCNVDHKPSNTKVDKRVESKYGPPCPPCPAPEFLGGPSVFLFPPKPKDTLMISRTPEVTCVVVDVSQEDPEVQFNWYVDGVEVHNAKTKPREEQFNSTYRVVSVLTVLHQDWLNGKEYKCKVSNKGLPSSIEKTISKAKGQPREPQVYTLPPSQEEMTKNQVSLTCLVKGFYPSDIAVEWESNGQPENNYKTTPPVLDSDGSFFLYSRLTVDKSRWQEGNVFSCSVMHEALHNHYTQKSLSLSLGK
light: SYELTQPPSVSVSPGQTARITCSGDALTSKYVAWYQQKSGLAPLLVIYEDTRRPSGIPAKFSGSSSGSVATLTISGAHGDDEADYYCYSTDASGHQRVFGGGTKLTVLSQPKAAPSVTLFPPSSEELQANKATLVCLISDFYPGAVTVAWKADGSPVKAGVETTKPSKQSNNKYAASSYLSLTPEQWKSHRSYSCQVTHEGSTVEKTVAPTECS
notes: pH-dependent anti-C2 antibody from a phage display library; also called WT
As for B1, the Kd turned out to be 10.5 nM with human C2 N403A, 13.1 nM with human C2 D269A, 104 nM in the assay with human C2 Q489A and 16.3 nM in the assay with human C2 K676S.

The term Kd denotes the free concentration of one partner at which half of the binding sites on the other are occupied at equilibrium, for simple one-to-one binding. Read a low Kd as a tighter complex.
